Like-named read-outs stand apart in the source and are kept apart here.

Results on 1 substance are retold here after article PMC4108063.

The target in assay [1] is human ether-a-go-go-related gene potassium channel (hERG), wild type (human) (UniProt Q12809).
Assay [2] concerns the target hERG-K610A (human) (UniProt Q12809).
Assay [3] concerns the target hERG-T613A (human) (UniProt Q12809).
The target in assay [4] is hERG-K595A (human) (UniProt Q12809).
The target of assay [5] is hERG-K608A (human) (UniProt Q12809).
Assay [6] concerns the target hERG-N588A (human) (UniProt Q12809).
Assay [7] has as its target hERG-N598A (human) (UniProt Q12809).
For assay [8], the target named is hERG-D591A (human) (UniProt Q12809).
Assay [9] concerns the target hERG-S600A (human) (UniProt Q12809).
Assay [10] has as its target hERG-I583A (human) (UniProt Q12809).
The target of assay [11] is hERG-L586A (human) (UniProt Q12809).
The target of assay [12] is hERG-Q592A (human) (UniProt Q12809).
In assay [13] the target is hERG-S631A (human) (UniProt Q12809).
Assay [14] addresses hERG-R582A (human) (UniProt Q12809).
The target in assay [15] is hERG-P596A (human) (UniProt Q12809).
The target in assay [16] is hERG-H587A (human) (UniProt Q12809).
In assay [17] the target is hERG-Y597A (human) (UniProt Q12809).
Assay [18] concerns the target hERG-I583A (human) (UniProt Q12809). The source holds these as a separate data set.
Assay [19] has as its target hERG-R582A (human) (UniProt Q12809). This is another data set of the same source.
For assay [20], the target named is human ether-a-go-go-related gene potassium channel (hERG), wild type (human) (UniProt Q12809). The source holds these as a separate data set.

With scorpion toxin BmKKx2 (peptide), the results for the IC50 (half-maximum inhibition concentration) of hERG channel currents, whole-cell patch clamp on transfected HEK293 cells in assay [1] and in assay [20] were 6.7 nM and 26.7 nM, respectively. Besides, the IC50 (half-maximum inhibition concentration) of mutant hERG channel currents, whole-cell patch clamp on transfected HEK293 cells in [2] is 6.7 nM; in assay [3] it was 42.6 nM; in [4] it was 65.2 nM; in [5], 116 nM; in assay [6], 14.5 nM; in assay [7], 15.2 nM. In addition, the IC50 (half-maximum inhibition concentration) of mutant hERG channel currents, whole-cell patch clamp on transfected HEK293 cells in [8] is 19.6 nM; in assay [9] it was 12.1 nM; in assay [10] it was 87.5 nM; in assay [11] it was 24.3 nM; in assay [12], 89.5 nM; in assay [13], 698 nM. Further, the IC50 (half-maximum inhibition concentration) of mutant hERG channel currents, whole-cell patch clamp on transfected HEK293 cells in assay [14] came out at 76.5 nM; in assay [15], 60.8 nM; in [16] it was 59.7 nM; in assay [17] it was 118 nM. Besides, the percent of mutant hERG channel currents inhibited by 100 nM BmKKx2, whole-cell patch clamp in assay [18] and in [19] was 70% each time.
